Assay results: patent publication US11198713B2, “Agents modulating beta-catenin functions and methods thereof” (FOG PHARMACEUTICALS, INC., priority 2017, dated 2021)
Numbered stars: 1 amine (or outer) side, 2 acyl side, 3 side chain; on linkers, the order of the positions; unused ones are H or OH. Bridge positions count the residues as written; N and C are the ends. Square brackets hold non-standard residues; d marks the D form. Primed or numbered codes have the meaning given here. MB(4) = Monomer B (PyrS), N-Alloc pyrrolidine stapling residue, (S)-3-amino-1-(allyloxycarbonyl)pyrrolidine-3-carboxylic acid, C=CCOC(=O)N1CC[C@@](N[*:1])(C(=O)[*:2])C1; R7″ = stapling residue, (R)-2-(6-heptenyl)alanine (drawn only), C=CCCCCC[C@@](C)(N[*:1])C(=O)[*:2]; R6″ = stapling residue, (R)-2-(5-hexenyl)alanine (drawn only), C=CCCCC[C@@](C)(N[*:1])C(=O)[*:2]; MB(15) = Monomer B = PyrS (PS), pyrrolidine stapling residue (Alloc on ring N); MB(11) = Monomer B (PyrS), pyrrolidine-bearing Alloc-olefin stapling residue; ME = Monomer E = RgN, acyclic alkyl-N(Alloc) olefin stapling residue; R7 = (R)-2-(6-heptenyl)alanine, C=CCCCCC[C@@](C)(N[*:1])C(=O)[*:2]; R6 = (R)-2-(5-hexenyl)alanine, C=CCCCC[C@@](C)(N[*:1])C(=O)[*:2]; S6 = (S)-2-(5-hexenyl)alanine, C=CCCCC[C@](C)(N[*:1])C(=O)[*:2]; MB(5) = Monomer B (PyrS), N-Alloc pyrrolidine stapling residue; MB(14) = Monomer B = PyrS, Alloc-pyrrolidine stapling residue; MF = Monomer F (SdN), acyclic alkyl-N(Alloc) stapling residue; Arg(Me2a) = CN(C)C(=N)NCCC[C@H](N)C(=O)O; Arg(Me2s) = CN=C(NC)NCCC[C@H](N)C(=O)O; 1Nal = N[C@@H](Cc1cccc2ccccc12)C(=O)O; hArg = N=C(N)NCCCC[C@H](N)C(=O)O; R8 = C=CCCCCCC[C@@](C)(N)C(=O)O; S8 = C=CCCCCCC[C@](C)(N)C(=O)O; R5 = C=CCCC[C@@](C)(N)C(=O)O; S5 = C=CCCC[C@](C)(N)C(=O)O; Aib = CC(C)(N)C(=O)O

B1: FP0507a (peptide)
peptide: Ac-A[MI]ILDAHI[S6]RVW-NH2
modifications: staple 2-9; also: amino staple MI/S6 (-N(R')-, after CO2 extrusion from carbamate staple), olefin E/Z not given here
B2: FP0212s Isomer 2 (peptide)
peptide: PAXILDAHVXRVW
modifications: not fully specified; Ac-P-A-R5-I-L-D-A-H-V-S8-R-V-W-NH2; hydrocarbon staple R5/S8
B3: FP0495c (peptide)
peptide: Ac-A[R7]ILDAHI[MD]RVW-NH2
modifications: staple 2-9; not fully specified; printed as Ac-A-R7-I-L-D-A-H-I-MD-R-V-W-NH2; also: carbamate staple R7/MD (-N(R')-C(O)-O-)

Target: T1, full-length beta-catenin (UniProt P35222 2-781, limits assumed)
T1 construct: mature; also called full-length ß-Catenin; β-catenin
T1 sequence (looked up): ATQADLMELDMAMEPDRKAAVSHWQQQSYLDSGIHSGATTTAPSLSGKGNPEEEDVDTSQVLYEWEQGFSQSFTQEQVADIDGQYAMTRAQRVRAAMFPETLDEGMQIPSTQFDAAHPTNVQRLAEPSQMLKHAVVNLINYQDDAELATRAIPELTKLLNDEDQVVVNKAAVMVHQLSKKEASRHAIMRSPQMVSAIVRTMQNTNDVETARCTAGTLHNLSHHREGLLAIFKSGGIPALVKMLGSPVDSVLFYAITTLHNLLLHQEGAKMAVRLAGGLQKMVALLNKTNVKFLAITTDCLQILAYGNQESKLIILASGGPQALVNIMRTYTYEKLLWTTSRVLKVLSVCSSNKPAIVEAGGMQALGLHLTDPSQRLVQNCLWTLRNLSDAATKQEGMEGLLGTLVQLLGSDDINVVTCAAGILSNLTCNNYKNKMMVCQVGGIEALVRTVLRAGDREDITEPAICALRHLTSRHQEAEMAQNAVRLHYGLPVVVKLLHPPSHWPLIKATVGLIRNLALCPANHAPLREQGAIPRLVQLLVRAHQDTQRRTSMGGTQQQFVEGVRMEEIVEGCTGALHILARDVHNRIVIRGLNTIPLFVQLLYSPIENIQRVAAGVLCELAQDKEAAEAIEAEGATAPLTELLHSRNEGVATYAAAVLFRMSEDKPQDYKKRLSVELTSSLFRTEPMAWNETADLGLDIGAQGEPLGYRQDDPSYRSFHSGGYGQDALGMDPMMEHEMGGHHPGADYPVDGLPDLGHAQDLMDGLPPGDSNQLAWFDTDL
Experiment: competition FP, grade of FP EC50 (+++: <=100 nM)
Procedure: (§1) In some embodiments, a competition fluorescence polarization assay is used to assess binding of provided compounds to beta-catenin. In an exemplary procedure, solutions of provided compounds, e.g., provided stapled peptides, were prepared in a buffer (e.g., 50 mM Tris pH 8.0, 250 mM NaCl, 2% glycerol, 0.5 mM EDTA, 0.02% w/v sodium azide) using a 3-fold serial dilution from 5 µM. Probe solution (15 nM full-length ß-Catenin, 20 nM FITC labeled peptide in buffer) was prepared and incubated for a period of time, e.g., 5 minutes, and the a volume, e.g., 40 µL per well plated in suitable plate, e.g., a black polystyrene 384-well plate (Corning). Equal volume of the serial diluted peptide was added to the plate and incubated protected from light for 15 minutes prior to read. Reads were performed on a Spectramax M5 (Molecular Devices) in duplicate. Suitable probe was FITC-PEG1-PQ-S5-ILD-S5-HVRRVWR (SEQ ID NO: 1) (hydrocarbon staple formed by two S5 via olefin metathesis) and/or FITC-bA-PQ-S5-ILD-S5-HVRRVWR (SEQ ID NO: 3) (hydrocarbon staple formed by two S5 via olefin metathesis). […] Another peptide, FPO217c (Ac-AR_8ILDAHIM$B5$RVW (SEQ ID NO: 280), with N-terminal proline removed and valine replaced with isoleucine compared to FP0025c) was prepared.

Binder | FP EC50
Ac-A[R5]ILDAHI[MH]RVW-NH2 (staple 2-9; not fully specified; printed as Ac-A-R5-I-L-D-A-H-I-MH-R-V-W-NH2) [FP0510c Isomer 2] | ≤ 100 nM
AXILDAHIXRVW (not fully specified; Ac-A-MG-I-L-D-A-H-I-MC-R-V-W-NH2; carbamate staple MG/MC) [FP0598c] | ≤ 100 nM
Ac-A[MI]ILDAHI[S5]RVW-NH2 (staple 2-9; also: carbamate staple, olefin geometry not assigned) [FP0506c Isomer 2] | ≤ 100 nM
B1 | ≤ 100 nM
Ac-A[R8]ILD[Aib]HI[MB(15)]RVW-NH2 (staple 2-9) [FP0645c] | ≤ 100 nM
Ac-A[R6″]ILDAHI[MH]RVW-NH2 (staple 2-9; not fully specified; printed as Ac-A-R6-I-L-D-A-H-I-MH-R-V-W-NH2) [FP0511c Isomer 1] | ≤ 100 nM
AXILDAHIXRVW (not fully specified; Ac-A-ME-I-L-D-A-H-I-MF-R-V-W-NH2; carbamate staple ME/MF) [FP0601c] | ≤ 100 nM
AXILDAHIXRVW (not fully specified; Ac-A-MI-I-L-D-A-H-I-MG-R-V-W-NH2; carbamate staple MI/MG) [FP0588c] | ≤ 100 nM
Ac-A[R8]ILDAHI[MB(4)][Arg(Me2a)]VW-NH2 (staple 2-9) [FP0639c] | ≤ 100 nM
Ac-A[MF]ILDAHI[MB(5)]RVW-NH2 (staple 2-9) [FP0626c] | ≤ 100 nM
Ac-A[R8]ILDAHI[MB(4)][hArg]VW-NH2 (staple 2-9) [FP0634c] | ≤ 100 nM
AXILDAHIXRVW (not fully specified; Ac-A-MA-I-L-D-A-H-I-MC-R-V-W-NH2; carbamate staple MA/MC) [FP0616c] | ≤ 100 nM
Ac-A[R6″]ILDAHI[MH]RVW-NH2 (staple 2-9; not fully specified; printed as Ac-A-R6-I-L-D-A-H-I-MH-R-V-W-NH2) [FP0511c Isomer 2] | ≤ 100 nM
AXILDAHIXRVW (not fully specified; Ac-A-ME-I-L-D-A-H-I-MB-R-V-W-NH2; carbamate staple ME/MB) [FP0604c] | ≤ 100 nM
AXILDAHIXRVW (not fully specified; Ac-A-MI-I-L-D-A-H-I-MF-R-V-W-NH2; carbamate staple MI/MF) [FP0587c] | ≤ 100 nM
AXILDAHIXRVW (not fully specified; Ac-A-R5-I-L-D-A-H-I-MH-R-V-W-NH2; carbamate staple R5/MH) [FP0510c Isomer 1] | ≤ 100 nM
AXILDAHIXRVW (not fully specified; Ac-A-MA-I-L-D-A-H-I-MF-R-V-W-NH2; carbamate staple MA/MF) [FP0611c] | ≤ 100 nM
AXILDAHIXRVW (not fully specified; Ac-A-MA-I-L-D-A-H-I-MB-R-V-W-NH2; carbamate staple MA/MB) [FP0617c] | ≤ 100 nM
Ac-A[R6″]ILDAHI[MH]RVW-NH2 (staple 2-9) [FP0511a] | ≤ 100 nM
AXILDAHIXRVW (not fully specified; Ac-A-ME-I-L-D-A-H-I-MC-R-V-W-NH2; carbamate staple ME/MC) [FP0605c] | ≤ 100 nM
Ac-A[R8]ILDAHI[MB(4)][Arg(Me2s)]VW-NH2 (staple 2-9) [FP0640c] | ≤ 100 nM

Target: T1, full-length beta-catenin
Experiment: competition FP, grade of FP EC50 (++: 100-500 nM)
Procedure: as §1

Binder | FP EC50
Ac-A[R6]ILDAHI[MF]RVW-NH2 (staple 2-9; also: carbamate staple, isomer 2, olefin geometry not assigned, also called FP0502c (Peak 2)) [FP0502c Isomer 2] | 100 to 500 nM
AXILDAHIXRVW (not fully specified; Ac-A-R7-I-L-D-A-H-I-MF-R-V-W-NH2; amino staple R7/MF) [FP0503a] | 100 to 500 nM
AXILDAHIXRVW (not fully specified; Ac-A-R5-I-L-D-A-H-I-MF-R-V-W-NH2; carbamate staple R5/MF) [FP0501c] | 100 to 500 nM
Ac-A[R7″]ILDAHI[MA]RVW-NH2 (staple 2-9) [FP0516c] | 100 to 500 nM
Ac-A[R7]ILDAHI[MF]RVW-NH2 (staple 2-9; also: carbamate staple, olefin geometry not assigned) [FP0503c] | 100 to 500 nM
B2 | 100 to 500 nM
AXILDAHIXRVW (not fully specified; Ac-A-ME-I-L-D-A-H-I-S8-R-V-W-NH2; carbamate staple ME/S8) [FP0335c Isomer 1] | 100 to 500 nM
Ac-A[MI]ILDAHI[S5]RVW-NH2 (staple 2-9; also: carbamate staple, isomer 1, olefin geometry not assigned) [FP0506c Isomer 1] | 100 to 500 nM
Ac-A[R7″]ILDAHI[MA]RVW-NH2 (staple 2-9; not fully specified; printed as Ac-A-R7-I-L-D-A-H-I-MA-R-V-W-NH2) [FP0516a Isomer 1] | 100 to 500 nM
B3 | 100 to 500 nM
Ac-A[R8]ILNAHI[MB(14)]RVW-NH2 (staple 2-9) [FP0218c] | 100 to 500 nM
Ac-A[R8]ILTAHI[MB(14)]RVW-NH2 (staple 2-9) [FP0219c] | 100 to 500 nM
AXILDAHIXAVW (not fully specified; Ac-A-R8-I-L-D-A-H-I-MB-A-V-W-NH2; carbamate staple R8/MB) [FP0410c] | 100 to 500 nM
AXIADAHIXRVW (not fully specified; Ac-A-R8-I-A-D-A-H-I-MB-R-V-W-NH2; carbamate staple R8/MB) [FP0406c] | 100 to 500 nM
Ac-A[R8]ILDAHI[MB(4)]K(Me)VW-NH2 (staple 2-9) [FP0636c] | 100 to 500 nM
Ac-A[R8]ILDAHI[MB(4)]KVW-NH2 (staple 2-9) [FP0635c] | 100 to 500 nM
Ac-A[R8]ILDAHI[MB(11)][1Nal]VW-NH2 (staple 2-9; also: carbamate staple R8/MB (-N(R')-C(O)-O-), isomer not specified) [FP0365c] | 100 to 500 nM
Ac-A[ME]ILDAHI[S8]RVW-NH2 (staple 2-9) [FP0335a] | 100 to 500 nM
AXILDAHIXRVW (not fully specified; Ac-A-MG-I-L-D-A-H-I-MF-R-V-W-NH2; carbamate staple MG/MF) [FP0594c] | 100 to 500 nM
AXILDAHIXRVW (not fully specified; Ac-A-MA-I-L-D-A-H-I-MI-R-V-W-NH2; carbamate staple MA/MI) [FP0625c] | 100 to 500 nM
